# Experimental data: patent US20210388087A1 (Chugai, published 2021)
# Molecular target: T1, Human CD137 ECD (human)
# T1 construct: also called 4-1BB
# Test: single mutant vs template dBBDu183H
# T1 sequence (chain, as listed by the source limits assumed): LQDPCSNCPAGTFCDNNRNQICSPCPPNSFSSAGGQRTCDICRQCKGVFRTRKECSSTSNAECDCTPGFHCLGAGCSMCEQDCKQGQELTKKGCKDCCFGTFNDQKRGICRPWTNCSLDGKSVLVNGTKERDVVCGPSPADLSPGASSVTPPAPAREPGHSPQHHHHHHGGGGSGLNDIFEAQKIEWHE
row,Binder,fold change of affinity
1,"H183/L072 VH A100fP (antibody, name in Kabat numbering, V domains shown) VH: QVQLVESGGGLVQPGRSLRLSCAASGFTFSNAWMHWVRQAPGKGLEWVAQIKDKGNAYAAYYAPSVKGRFTISRDDSKNSIYLQMNSLKTEDTAVYYCHYVHYASASTVLPPFGVDAWGQGTTVTVSS VL: DIVMTQSPLSLPVTPGEPASISCQASQELVHMNRNTYLHWYQQKPGQAPRLLIYKVSNRFPGVPDRFSGSGSGTDFTLKISRVEAEDVGVYYCAQGTSVPFTFGQGTKLEIK",0.3 fold
2,"H183/L072 VH A60W (antibody, name in Kabat numbering, V domains shown) VH: QVQLVESGGGLVQPGRSLRLSCAASGFTFSNAWMHWVRQAPGKGLEWVAQIKDKGNAYAAYYWPSVKGRFTISRDDSKNSIYLQMNSLKTEDTAVYYCHYVHYASASTVLPAFGVDAWGQGTTVTVSS VL: DIVMTQSPLSLPVTPGEPASISCQASQELVHMNRNTYLHWYQQKPGQAPRLLIYKVSNRFPGVPDRFSGSGSGTDFTLKISRVEAEDVGVYYCAQGTSVPFTFGQGTKLEIK",0.9 fold
3,"H183/L072 VH A60V (antibody, name in Kabat numbering, V domains shown) VH: QVQLVESGGGLVQPGRSLRLSCAASGFTFSNAWMHWVRQAPGKGLEWVAQIKDKGNAYAAYYVPSVKGRFTISRDDSKNSIYLQMNSLKTEDTAVYYCHYVHYASASTVLPAFGVDAWGQGTTVTVSS VL: DIVMTQSPLSLPVTPGEPASISCQASQELVHMNRNTYLHWYQQKPGQAPRLLIYKVSNRFPGVPDRFSGSGSGTDFTLKISRVEAEDVGVYYCAQGTSVPFTFGQGTKLEIK",0.9 fold
4,"H183/L072 VH A100P (antibody, name in Kabat numbering, V domains shown) VH: QVQLVESGGGLVQPGRSLRLSCAASGFTFSNAWMHWVRQAPGKGLEWVAQIKDKGNAYAAYYAPSVKGRFTISRDDSKNSIYLQMNSLKTEDTAVYYCHYVHYASPSTVLPAFGVDAWGQGTTVTVSS VL: DIVMTQSPLSLPVTPGEPASISCQASQELVHMNRNTYLHWYQQKPGQAPRLLIYKVSNRFPGVPDRFSGSGSGTDFTLKISRVEAEDVGVYYCAQGTSVPFTFGQGTKLEIK",0.3 fold
5,"H183/L072 VH A100L (antibody, name in Kabat numbering, V domains shown) VH: QVQLVESGGGLVQPGRSLRLSCAASGFTFSNAWMHWVRQAPGKGLEWVAQIKDKGNAYAAYYAPSVKGRFTISRDDSKNSIYLQMNSLKTEDTAVYYCHYVHYASLSTVLPAFGVDAWGQGTTVTVSS VL: DIVMTQSPLSLPVTPGEPASISCQASQELVHMNRNTYLHWYQQKPGQAPRLLIYKVSNRFPGVPDRFSGSGSGTDFTLKISRVEAEDVGVYYCAQGTSVPFTFGQGTKLEIK",0 fold
6,"H183/L072 VH A98L (antibody, name in Kabat numbering, V domains shown) VH: QVQLVESGGGLVQPGRSLRLSCAASGFTFSNAWMHWVRQAPGKGLEWVAQIKDKGNAYAAYYAPSVKGRFTISRDDSKNSIYLQMNSLKTEDTAVYYCHYVHYLSASTVLPAFGVDAWGQGTTVTVSS VL: DIVMTQSPLSLPVTPGEPASISCQASQELVHMNRNTYLHWYQQKPGQAPRLLIYKVSNRFPGVPDRFSGSGSGTDFTLKISRVEAEDVGVYYCAQGTSVPFTFGQGTKLEIK",0 fold
7,"H183/L072 VH A100M (antibody, name in Kabat numbering, V domains shown) VH: QVQLVESGGGLVQPGRSLRLSCAASGFTFSNAWMHWVRQAPGKGLEWVAQIKDKGNAYAAYYAPSVKGRFTISRDDSKNSIYLQMNSLKTEDTAVYYCHYVHYASMSTVLPAFGVDAWGQGTTVTVSS VL: DIVMTQSPLSLPVTPGEPASISCQASQELVHMNRNTYLHWYQQKPGQAPRLLIYKVSNRFPGVPDRFSGSGSGTDFTLKISRVEAEDVGVYYCAQGTSVPFTFGQGTKLEIK",0.7 fold
8,"H183/L072 VH A100fM (antibody, name in Kabat numbering, V domains shown) VH: QVQLVESGGGLVQPGRSLRLSCAASGFTFSNAWMHWVRQAPGKGLEWVAQIKDKGNAYAAYYAPSVKGRFTISRDDSKNSIYLQMNSLKTEDTAVYYCHYVHYASASTVLPMFGVDAWGQGTTVTVSS VL: DIVMTQSPLSLPVTPGEPASISCQASQELVHMNRNTYLHWYQQKPGQAPRLLIYKVSNRFPGVPDRFSGSGSGTDFTLKISRVEAEDVGVYYCAQGTSVPFTFGQGTKLEIK",0 fold
9,"H183/L072 VH A100fL (antibody, name in Kabat numbering, V domains shown) VH: QVQLVESGGGLVQPGRSLRLSCAASGFTFSNAWMHWVRQAPGKGLEWVAQIKDKGNAYAAYYAPSVKGRFTISRDDSKNSIYLQMNSLKTEDTAVYYCHYVHYASASTVLPLFGVDAWGQGTTVTVSS VL: DIVMTQSPLSLPVTPGEPASISCQASQELVHMNRNTYLHWYQQKPGQAPRLLIYKVSNRFPGVPDRFSGSGSGTDFTLKISRVEAEDVGVYYCAQGTSVPFTFGQGTKLEIK",0 fold
10,"H183/L072 VH A60Y (antibody, name in Kabat numbering, V domains shown) VH: QVQLVESGGGLVQPGRSLRLSCAASGFTFSNAWMHWVRQAPGKGLEWVAQIKDKGNAYAAYYYPSVKGRFTISRDDSKNSIYLQMNSLKTEDTAVYYCHYVHYASASTVLPAFGVDAWGQGTTVTVSS VL: DIVMTQSPLSLPVTPGEPASISCQASQELVHMNRNTYLHWYQQKPGQAPRLLIYKVSNRFPGVPDRFSGSGSGTDFTLKISRVEAEDVGVYYCAQGTSVPFTFGQGTKLEIK",1.2 fold

# Continued, values first:
row,fold change of affinity,Binder
1,1.3 fold,"H183/L072 VH A60T (antibody, name in Kabat numbering, V domains shown) VH: QVQLVESGGGLVQPGRSLRLSCAASGFTFSNAWMHWVRQAPGKGLEWVAQIKDKGNAYAAYYTPSVKGRFTISRDDSKNSIYLQMNSLKTEDTAVYYCHYVHYASASTVLPAFGVDAWGQGTTVTVSS VL: DIVMTQSPLSLPVTPGEPASISCQASQELVHMNRNTYLHWYQQKPGQAPRLLIYKVSNRFPGVPDRFSGSGSGTDFTLKISRVEAEDVGVYYCAQGTSVPFTFGQGTKLEIK"
2,0 fold,"H183/L072 VH A102M (antibody, name in Kabat numbering, V domains shown) VH: QVQLVESGGGLVQPGRSLRLSCAASGFTFSNAWMHWVRQAPGKGLEWVAQIKDKGNAYAAYYAPSVKGRFTISRDDSKNSIYLQMNSLKTEDTAVYYCHYVHYASASTVLPAFGVDMWGQGTTVTVSS VL: DIVMTQSPLSLPVTPGEPASISCQASQELVHMNRNTYLHWYQQKPGQAPRLLIYKVSNRFPGVPDRFSGSGSGTDFTLKISRVEAEDVGVYYCAQGTSVPFTFGQGTKLEIK"
3,0 fold,"H183/L072 VH A100fI (antibody, name in Kabat numbering, V domains shown) VH: QVQLVESGGGLVQPGRSLRLSCAASGFTFSNAWMHWVRQAPGKGLEWVAQIKDKGNAYAAYYAPSVKGRFTISRDDSKNSIYLQMNSLKTEDTAVYYCHYVHYASASTVLPIFGVDAWGQGTTVTVSS VL: DIVMTQSPLSLPVTPGEPASISCQASQELVHMNRNTYLHWYQQKPGQAPRLLIYKVSNRFPGVPDRFSGSGSGTDFTLKISRVEAEDVGVYYCAQGTSVPFTFGQGTKLEIK"
4,2 fold,"H183/L072 VH D101A (antibody, name in Kabat numbering, V domains shown) VH: QVQLVESGGGLVQPGRSLRLSCAASGFTFSNAWMHWVRQAPGKGLEWVAQIKDKGNAYAAYYAPSVKGRFTISRDDSKNSIYLQMNSLKTEDTAVYYCHYVHYASASTVLPAFGVAAWGQGTTVTVSS VL: DIVMTQSPLSLPVTPGEPASISCQASQELVHMNRNTYLHWYQQKPGQAPRLLIYKVSNRFPGVPDRFSGSGSGTDFTLKISRVEAEDVGVYYCAQGTSVPFTFGQGTKLEIK"
5,0 fold,"H183/L072 VH A98P (antibody, name in Kabat numbering, V domains shown) VH: QVQLVESGGGLVQPGRSLRLSCAASGFTFSNAWMHWVRQAPGKGLEWVAQIKDKGNAYAAYYAPSVKGRFTISRDDSKNSIYLQMNSLKTEDTAVYYCHYVHYPSASTVLPAFGVDAWGQGTTVTVSS VL: DIVMTQSPLSLPVTPGEPASISCQASQELVHMNRNTYLHWYQQKPGQAPRLLIYKVSNRFPGVPDRFSGSGSGTDFTLKISRVEAEDVGVYYCAQGTSVPFTFGQGTKLEIK"
6,0 fold,"H183/L072 VH A102I (antibody, name in Kabat numbering, V domains shown) VH: QVQLVESGGGLVQPGRSLRLSCAASGFTFSNAWMHWVRQAPGKGLEWVAQIKDKGNAYAAYYAPSVKGRFTISRDDSKNSIYLQMNSLKTEDTAVYYCHYVHYASASTVLPAFGVDIWGQGTTVTVSS VL: DIVMTQSPLSLPVTPGEPASISCQASQELVHMNRNTYLHWYQQKPGQAPRLLIYKVSNRFPGVPDRFSGSGSGTDFTLKISRVEAEDVGVYYCAQGTSVPFTFGQGTKLEIK"
7,0.9 fold,"H183/L072 VH A102L (antibody, name in Kabat numbering, V domains shown) VH: QVQLVESGGGLVQPGRSLRLSCAASGFTFSNAWMHWVRQAPGKGLEWVAQIKDKGNAYAAYYAPSVKGRFTISRDDSKNSIYLQMNSLKTEDTAVYYCHYVHYASASTVLPAFGVDLWGQGTTVTVSS VL: DIVMTQSPLSLPVTPGEPASISCQASQELVHMNRNTYLHWYQQKPGQAPRLLIYKVSNRFPGVPDRFSGSGSGTDFTLKISRVEAEDVGVYYCAQGTSVPFTFGQGTKLEIK"
8,0 fold,"H183/L072 VH A98I (antibody, name in Kabat numbering, V domains shown) VH: QVQLVESGGGLVQPGRSLRLSCAASGFTFSNAWMHWVRQAPGKGLEWVAQIKDKGNAYAAYYAPSVKGRFTISRDDSKNSIYLQMNSLKTEDTAVYYCHYVHYISASTVLPAFGVDAWGQGTTVTVSS VL: DIVMTQSPLSLPVTPGEPASISCQASQELVHMNRNTYLHWYQQKPGQAPRLLIYKVSNRFPGVPDRFSGSGSGTDFTLKISRVEAEDVGVYYCAQGTSVPFTFGQGTKLEIK"
9,0 fold,"H183/L072 VH A100I (antibody, name in Kabat numbering, V domains shown) VH: QVQLVESGGGLVQPGRSLRLSCAASGFTFSNAWMHWVRQAPGKGLEWVAQIKDKGNAYAAYYAPSVKGRFTISRDDSKNSIYLQMNSLKTEDTAVYYCHYVHYASISTVLPAFGVDAWGQGTTVTVSS VL: DIVMTQSPLSLPVTPGEPASISCQASQELVHMNRNTYLHWYQQKPGQAPRLLIYKVSNRFPGVPDRFSGSGSGTDFTLKISRVEAEDVGVYYCAQGTSVPFTFGQGTKLEIK"
10,0 fold,"H183/L072 VH A98M (antibody, name in Kabat numbering, V domains shown) VH: QVQLVESGGGLVQPGRSLRLSCAASGFTFSNAWMHWVRQAPGKGLEWVAQIKDKGNAYAAYYAPSVKGRFTISRDDSKNSIYLQMNSLKTEDTAVYYCHYVHYMSASTVLPAFGVDAWGQGTTVTVSS VL: DIVMTQSPLSLPVTPGEPASISCQASQELVHMNRNTYLHWYQQKPGQAPRLLIYKVSNRFPGVPDRFSGSGSGTDFTLKISRVEAEDVGVYYCAQGTSVPFTFGQGTKLEIK"
11,0 fold,"H183/L072 VH D52aY (antibody, name in Kabat numbering, V domains shown) VH: QVQLVESGGGLVQPGRSLRLSCAASGFTFSNAWMHWVRQAPGKGLEWVAQIKYKGNAYAAYYAPSVKGRFTISRDDSKNSIYLQMNSLKTEDTAVYYCHYVHYASASTVLPAFGVDAWGQGTTVTVSS VL: DIVMTQSPLSLPVTPGEPASISCQASQELVHMNRNTYLHWYQQKPGQAPRLLIYKVSNRFPGVPDRFSGSGSGTDFTLKISRVEAEDVGVYYCAQGTSVPFTFGQGTKLEIK"
